Reference: US20180355059A1 (PHARMAEXPLORER, published 2018)
Each block holds one binder with its values, some of them ahead of it.

Experiments:
[1] = biological target: T1, recombinant human PCSK9-His protein (Immunogen A) (human, UniProt Q8NBP7 31-692, limits assumed, biotinylated in the ELISA assays); assay: BLI, Octet Red 96; antibody on AHC sensor
T1 construct: also called hPCSK9-His; His-tagged hPCSK9; not shown: His tag

[2] = biological target: T2, recombinant cyno monkey PCSK9 protein (cyno monkey, UniProt A8T666 31-692 (rhesus entry), limits assumed, biotinylated in the ELISA assays); assay: ELISA; antibody 0.067 nM
T2 construct: also called cyno PCSK9; Cyno Monkey PCSK9-His
T2 sequence (A8T666 31-692 limits assumed): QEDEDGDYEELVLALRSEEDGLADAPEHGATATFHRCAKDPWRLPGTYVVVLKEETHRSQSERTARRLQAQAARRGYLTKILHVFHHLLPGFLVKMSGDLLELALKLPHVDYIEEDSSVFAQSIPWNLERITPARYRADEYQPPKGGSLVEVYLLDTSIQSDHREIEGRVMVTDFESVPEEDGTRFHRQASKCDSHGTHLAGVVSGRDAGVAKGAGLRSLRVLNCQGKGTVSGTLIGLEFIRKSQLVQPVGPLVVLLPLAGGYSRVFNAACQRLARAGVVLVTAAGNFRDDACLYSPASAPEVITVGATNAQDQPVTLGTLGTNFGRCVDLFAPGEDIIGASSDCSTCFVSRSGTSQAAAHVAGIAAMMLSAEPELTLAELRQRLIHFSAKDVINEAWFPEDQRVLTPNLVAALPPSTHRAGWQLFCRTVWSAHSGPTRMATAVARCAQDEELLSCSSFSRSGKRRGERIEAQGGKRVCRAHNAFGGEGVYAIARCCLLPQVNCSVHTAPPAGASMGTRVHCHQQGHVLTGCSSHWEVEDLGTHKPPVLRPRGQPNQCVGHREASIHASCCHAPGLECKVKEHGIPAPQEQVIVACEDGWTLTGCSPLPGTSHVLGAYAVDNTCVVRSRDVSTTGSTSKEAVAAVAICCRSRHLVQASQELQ

[3] = biological target: T1, recombinant human PCSK9-His protein …; assay: ELISA; antibody 0 nM
[4] = biological target: T2, recombinant cyno monkey PCSK9 protein; assay: ELISA; antibody 0.0067 nM
[5] = biological target: T2, recombinant cyno monkey PCSK9 protein; assay: ELISA; antibody 0 nM
[6] = biological target: T1, recombinant human PCSK9-His protein …; assay: ELISA; antibody 0.00067 nM
[7] = biological target: T1, recombinant human PCSK9-His protein …; assay: ELISA; antibody 0.000067 nM
[8] = biological target: T1, recombinant human PCSK9-His protein …; assay: ELISA of PCSK9 binding to LDLR ECD; antibody 0.01 nM
[9] = biological target: T2, recombinant cyno monkey PCSK9 protein; assay: ELISA; antibody 6.67 nM
[10] = biological target: T1, recombinant human PCSK9-His protein …; assay: ELISA; antibody 0.067 nM
[11] = biological target: T1, recombinant human PCSK9-His protein …; assay: ELISA of PCSK9 binding to LDLR ECD; antibody 40 nM
[12] = biological target: T1, recombinant human PCSK9-His protein …; assay: ELISA of PCSK9 binding to LDLR ECD; antibody 200 nM
[13] = biological target: T1, recombinant human PCSK9-His protein …; assay: ELISA; antibody 66.67 nM
[14] = biological target: T1, recombinant human PCSK9-His protein …; assay: ELISA; antibody 0.67 nM
[15] = biological target: T1, recombinant human PCSK9-His protein …; assay: ELISA of PCSK9 binding to LDLR ECD; antibody 0.06 nM
[16] = biological target: T2, recombinant cyno monkey PCSK9 protein; assay: ELISA; antibody 0.67 nM
[17] = biological target: T2, recombinant cyno monkey PCSK9 protein; assay: ELISA; antibody 0.000067 nM
[18] = biological target: T1, recombinant human PCSK9-His protein …; assay: ELISA of PCSK9 binding to LDLR ECD; antibody 0.32 nM
[19] = biological target: T1, recombinant human PCSK9-His protein …; assay: ELISA; antibody 0.0067 nM
[20] = biological target: T2, recombinant cyno monkey PCSK9 protein; assay: ELISA; antibody 66.67 nM
[21] = biological target: T1, recombinant human PCSK9-His protein …; assay: ELISA of PCSK9 binding to LDLR ECD; antibody 0 nM
[22] = biological target: T2, recombinant cyno monkey PCSK9 protein; assay: ELISA; antibody 0.00067 nM
[23] = biological target: T1, recombinant human PCSK9-His protein …; assay: ELISA; antibody 6.67 nM
[24] = biological target: T1, recombinant human PCSK9-His protein …; assay: ELISA of PCSK9 binding to LDLR ECD; antibody 1.6 nM
[25] = biological target: T1, recombinant human PCSK9-His protein …; assay: SPR, Biacore T200; antibody captured by anti-human Fc
Procedure: Anti-human Fc IgG was immobilized on flow cells 1 and 2: HBS-EP+(10 mM HEPES, 150 mM NaCl, 3 mM EDTA, 0.05% P20, pH 7.4) was used as running buffer, and the immobilization of anti-human Fc IgG was carried out using the immobilization wizard template. Flow cells 1 and 2 of a Series S CM5 sensor chip were activated with freshly-mixed 50 mmol/L NHS and 200 mmol/L EDC. 20 ug/mL of anti-human Fc IgG diluted in 10 mM NaAC (pH 4.5) was injected into the activated flow cells 1 and 2. The remaining active coupling sites were blocked with 1M ethanolamine.
KD measurements were carried out with HBS-EP+ as the running buffer. Each antibody was injected over the CM5 sensor flow cell 2 with a flow rate of 10 uL/min to reach response 230 RU. […] Buffer flow was maintained for 400 seconds for dissociation measurements (30 uL/min). To remove the tested antibody from the surface, 10 mM glycine-HCl pH 1.5 was injected for 20 seconds (30 ulJmin). Flow cell 1 was used as reference flow cell. […] The KD value for each antibody was evaluated using Biacore T200 evaluation software 1.0, and the data was fit with a 1:1 binding model.

Kd [1]: 12.1 nM
koff [1]: 0.000643 s⁻¹
kon [1]: 53100 M⁻¹ s⁻¹
OD450 nm [2]: 1.46 OD450 nm
OD450 nm [3]: 0.06 OD450 nm
OD450 nm [4]: 0.24 OD450 nm
OD450 nm [5]: 0.07 OD450 nm
OD450 nm [6]: 0.07 OD450 nm
OD450 nm [7]: 0.06 OD450 nm
OD450 nm [8]: 2.26 OD450 nm
OD450 nm [9]: 3 OD450 nm
OD450 nm [10]: 0.8 OD450 nm
OD450 nm [11]: 1.35 OD450 nm
OD450 nm [12]: 1.27 OD450 nm
OD450 nm [13]: 2.97 OD450 nm
OD450 nm [14]: 2.77 OD450 nm
OD450 nm [15]: 2.28 OD450 nm
OD450 nm [16]: 2.91 OD450 nm
OD450 nm [17]: 0.11 OD450 nm
OD450 nm [18]: 2.31 OD450 nm
OD450 nm [19]: 0.14 OD450 nm
OD450 nm [20]: 3 OD450 nm
OD450 nm [21]: 2.38 OD450 nm
OD450 nm [22]: 0.08 OD450 nm
OD450 nm [23]: 2.97 OD450 nm
OD450 nm [24]: 2.19 OD450 nm
B1: 76A1B11, fully human anti-PCSK9 antibody (antibody, human IgG1, V domains shown)
VH: QVQLVESGGGVVQPGRSLRLSCAATGFTFSIYGMHWVRQAPGKGLEWVAVIWYDGSNKYYADSVKGRFIISRDNSKNTLYLQMNSLRVEDTAVYYCVSDYFGSGNSYYYYGMDVWGQGTTVTVSS
VL: DIQMTQSPSSLSASVGDRVTITCRASQVISNYLAWYQQKPGKVPKLLIYTASTLQSGVPSRFSGSGSGADFTLTISSLQPEDVATYYCQKYNSAPYTFGQGTKLEIK

Kd [1]: 2.17 nM
Kd [25]: 1.42 nM
B2: 103C11E8, fully human anti-PCSK9 antibody (antibody, human IgG1, V domains shown)
VH: QVQLQESGPGLVKPSGTLSLTCAVSGGSISSSNWWSWVRQPPGKGLEWIGEIYHSGSTNYNPSLKSRVTISVDKSKNQFSLKLSSVTAADTAVYYCARGIAVAGTDVMDAWGQGASVTVSS
VL: EIVLTQSPATLSLSPGERATLSCRASQSVSSYLVWYQQKSGQAPRLLIYGTSNRATGIPARFSGSGSGTDFTLTISSLEPEDFALYYCQQRGNWMYTFGQGTKLEIK
